This note sets out measurements from patent US20160237162A1.

For test [1], the target named is human HER3 on human cancer cells (human) (UniProt P21860).
For test [2] the target is unchanged. This is another data set of the same source.
Test [3] has the same target. The source holds these as a separate data set.
Test [4] shares this target. The source holds these as a separate data set.
The target is the same in test [5]. This is another data set of the same source.
The target is the same in test [6]. The source holds these as a separate data set.
Test [7] has the same target. This is another data set of the same source.
The target is the same in test [8]. Kind of test: cell-based or functional assay.
The target is the same in test [9]. This is another data set of the same source.
The target is the same in test [10]. The source holds these as a separate data set.
Test [11] shares this target. The source holds these as a separate data set.
Test [12] has the same target. This is another data set of the same source.

Turning to “AMG anti-HER3 monoclonal antibody (U1-59)”, in test [1], the IC50; suppression of HRG-induced pHER3 (pHER3 ELISA), MCF-7 cells stood at 33 ng/ml and the Maximum inhibition %; suppression of HRG-induced pHER3 (pHER3 ELISA), MCF-7 cells is 77%. In test [2], this substance yielded an IC50; suppression of pHER3 (pHER3 ELISA), EGFR-TKI (gefitinib)-resistant HCC827 cells of 31 ng/ml and a Maximum inhibition %; suppression of pHER3 (pHER3 ELISA), EGFR-TKI (gefitinib)-resistant HCC827 cells of 24%. In test [3], this substance gave an IC50; suppression of pAKT (Meso-Scale Discovery assay), BT-474 cells above 10 µg/ml and a Max inhibition%; suppression of pAKT (Meso-Scale Discovery assay), BT-474 cells of 1%. In [4], this substance returned an IC50; suppression of pHER3 (pHER3 ELISA), MKN45 cells of 16.1 ng/ml and a Maximum inhibition %; suppression of pHER3 (pHER3 ELISA), MKN45 cells of 58%. In test [5], this substance gave an IC50; suppression of pAKT (Meso-Scale Discovery assay), MKN45 cells of 15.8 ng/ml and a Maximum inhibition %; suppression of pAKT (Meso-Scale Discovery assay), MKN45 cells of 38%. Also, in test [6], the IC50; suppression of pHER3 (pHER3 ELISA), Kato III cells is 9.6 ng/ml and the Maximum inhibition %; suppression of pHER3 (pHER3 ELISA), Kato III cells stood at 62%. Also, in test [7], the IC50; suppression of pAKT (Meso-Scale Discovery assay), Kato III cells is 6.2 ng/ml and the Maximum inhibition %; suppression of pAKT (Meso-Scale Discovery assay), Kato III cells worked out at 22%. Besides, in test [8], the fold decrease in pHER3 ELISA in HCC827 cells; potency against 2C2 is 10 fold and the pHER3 ELISA in Kato III cells, maximal pHER3 suppression worked out at 60%. In test [9], this substance displayed an IC50; growth suppression (CellTiter-Glo, 6 days), HMCB melanoma cells of 1.73 µg/mL. Also, in test [10], the IC50; suppression of pHER3 (pHER3 ELISA), HCC827 cells was 23 ng/ml and the Maximum inhibition %; suppression of pHER3 (pHER3 ELISA), HCC827 cells amounted to 41%. In test [11], this substance gave an IC50; growth suppression (CellTiter-Glo, 6 days), MDA-MB-175 cells of 0.99 µg/mL and a Maximum inhibition %; growth suppression (CellTiter-Glo, 6 days), MDA-MB-175 cells of 39%. The same substance showed an IC50; suppression of pHER3 (pHER3 ELISA), BT-474 cells in test [12] above 10 µg/ml.
